Experimental data as given in US12428633B2, “Inducible dimerization of recombinases” (TRUSTEES OF BOSTON UNIVERSITY, priority 2016, dated 2025).

B1: VCre 172: VCre (SEQ ID NO: 16) split into aa 1-172 and 173-380, fused to CIDD pair (protein)
chain: MIENQLSLLGDFSGVRPDDVKTAIQAAQKKGINVAENEQFKAAFEHLLNEFKKREERYSPNTLRRLESAWTCFVDWCLANHRHSLPATPDTVEAFFIERAEELHRNTLSVYRWAISRVHRVAGCPDPCLDIYVEDRLKAIARKKVREGEAVKQASPFNEQHLLKLTSLWYRSDKLLLRRNLALLAVAYESMLRASELANIRVSDMELAGDGTAILTIPITKTNHSGEPDTCILSQDVVSLLMDYTEAGKLDMSSDGFLFVGVSKHNTCIKPKKDKQTGEVLHKPITTKTVEGVFYSAWETLDLGRQGVKPFTAHSARVGAAQDLLKKGYNTLQIQQSGRWSSGAMVARYGRAILARDGAMAHSRVKTRSAPMQWGKDEKD
modifications: split at 172/173; CIDD pair fusions lack entries
B2: VCre 269: VCre (SEQ ID NO: 16) split into aa 1-269 and 270-380, fused to CIDD pair (protein)
chain: B1 chain
modifications: split at 269/270; CIDD pair fusions lack entries
B3: VCre 277: VCre (SEQ ID NO: 16) split into aa 1-277 and 278-380, fused to CIDD pair (protein)
chain: B1 chain
modifications: split at 277/278; CIDD pair fusions lack entries
B4: VCre 82: VCre (SEQ ID NO: 16) split into aa 1-82 and 83-380, fused to CIDD pair (protein)
chain: B1 chain
modifications: split at 82/83; CIDD pair fusions lack entries
B5: Flp 27: Flp (SEQ ID NO: 1) split into aa 1-27 and 28-423, fused to CIDD pair (protein)
chain 1: MSQFDILCKTPPKVLVRQFVERFERPS
chain 2: GEKIASCAAELTYLCWMITHNGTAIKRATFMSYNTIISNSLSFDIVNKSLQFKYKTQKATILEASLKKLIPAWEFTIIPYNGQKHQSDITDIVSSLQLQFESSEEADKGNSHSKKMLKALLSEGESIWEITEKILNSFEYTSRFTKTKTLYQFLFLATFINCGRFSDIKNVDPKSFKLVQNKYLGVIIQCLVTETKTSVSRHIYFFSARGRIDPLVYLDEFLRNSEPVLKRVNRTGNSSSNKQEYQLLKDNLVRSYNKALKKNAPYPIFAIKNGPKSHIGRHLMTSFLSMKGLTELTNVVGNWSDKRASAVARTTYTHQITAIPDHYFALVSRYYAYDPISKEMIALKDETNPIEEWQHIEQLKGSAEGSIRYPAWNGIISQEVLDYLSSYINRRI
modifications: fused to CIDD pair
B6: Flp 168: Flp (SEQ ID NO: 1) split into aa 1-168 and 169-423, fused to CIDD pair (protein)
chain 1: MSQFDILCKTPPKVLVRQFVERFERPSGEKIASCAAELTYLCWMITHNGTAIKRATFMSYNTIISNSLSFDIVNKSLQFKYKTQKATILEASLKKLIPAWEFTIIPYNGQKHQSDITDIVSSLQLQFESSEEADKGNSHSKKMLKALLSEGESIWEITEKILNSFEYT
chain 2: SRFTKTKTLYQFLFLATFINCGRFSDIKNVDPKSFKLVQNKYLGVIIQCLVTETKTSVSRHIYFFSARGRIDPLVYLDEFLRNSEPVLKRVNRTGNSSSNKQEYQLLKDNLVRSYNKALKKNAPYPIFAIKNGPKSHIGRHLMTSFLSMKGLTELTNVVGNWSDKRASAVARTTYTHQITAIPDHYFALVSRYYAYDPISKEMIALKDETNPIEEWQHIEQLKGSAEGSIRYPAWNGIISQEVLDYLSSYINRRI
modifications: fused to CIDD pair
B7: Flp 374: Flp (SEQ ID NO: 1) split into aa 1-374 and 375-423, fused to CIDD pair (protein)
chain 1: MSQFDILCKTPPKVLVRQFVERFERPSGEKIASCAAELTYLCWMITHNGTAIKRATFMSYNTIISNSLSFDIVNKSLQFKYKTQKATILEASLKKLIPAWEFTIIPYNGQKHQSDITDIVSSLQLQFESSEEADKGNSHSKKMLKALLSEGESIWEITEKILNSFEYTSRFTKTKTLYQFLFLATFINCGRFSDIKNVDPKSFKLVQNKYLGVIIQCLVTETKTSVSRHIYFFSARGRIDPLVYLDEFLRNSEPVLKRVNRTGNSSSNKQEYQLLKDNLVRSYNKALKKNAPYPIFAIKNGPKSHIGRHLMTSFLSMKGLTELTNVVGNWSDKRASAVARTTYTHQITAIPDHYFALVSRYYAYDPISKEMIAL
chain 2: KDETNPIEEWQHIEQLKGSAEGSIRYPAWNGIISQEVLDYLSSYINRRI
modifications: fused to CIDD pair
B8: Flp 396: Flp (SEQ ID NO: 1) split into aa 1-396 and 397-423, fused to CIDD pair (protein)
chain 1: MSQFDILCKTPPKVLVRQFVERFERPSGEKIASCAAELTYLCWMITHNGTAIKRATFMSYNTIISNSLSFDIVNKSLQFKYKTQKATILEASLKKLIPAWEFTIIPYNGQKHQSDITDIVSSLQLQFESSEEADKGNSHSKKMLKALLSEGESIWEITEKILNSFEYTSRFTKTKTLYQFLFLATFINCGRFSDIKNVDPKSFKLVQNKYLGVIIQCLVTETKTSVSRHIYFFSARGRIDPLVYLDEFLRNSEPVLKRVNRTGNSSSNKQEYQLLKDNLVRSYNKALKKNAPYPIFAIKNGPKSHIGRHLMTSFLSMKGLTELTNVVGNWSDKRASAVARTTYTHQITAIPDHYFALVSRYYAYDPISKEMIALKDETNPIEEWQHIEQLKGSAEG
chain 2: SIRYPAWNGIISQEVLDYLSSYINRRI
modifications: fused to CIDD pair

Experiments:
VloxP = assay: Gibberellin ester (GIB)-induced split-VCre rejoinder, GFP reporter; format: cell-based, human; conditions: GAI/GID1 CIDD pair; with vs without GIB
Description: FIGS. 42A-42B show results of gene expression of different split-recombinase Cre (SEQ ID NO: 74) or VCre fragments (SEQ ID NO: 16).
(§1) DNA was transfected into the human embryonic kidney cell line (HEK293FT) using a polyethylenimine (PEI) protocol. Cells were plated onto 48-(2504) or 96-well (1004) plates the day prior to transfection (200,000 cells/mL), such that the cells were 50-70% confluent the day of transfection. Cells were kept in a humidified incubator at 37° C. and 5% CO2 and maintained in DMEM medium (Corning) with 10% Heat Inactivated Fetal Bovine Serum (Life Technologies), 50 U.I./mL penicillin/50 μg/mL streptomycin (Corning), 2 mM glutamine (Corning) and 1 mM sodium pyruvate (Lonza). PEI stocks were made from linear polyethylenimine (Polysciences 23966-2) and were dissolved at a concentration of 0.323 g/L in deionized water with the assistance of concentrated hydrochloric acid and sodium hydroxide and then filtered sterilized (0.24 μm). PEI stocks were stored at −80° C. until use and warmed to room temperature prior to usage. For 48-well plate transfections, DNA (1000 ng, 50 ng/4) was dissolved and brought up to a volume of 50 μL using 0.15 M sodium chloride (NaCl, Fisher Scientific). DNA-NaCl solutions were then mixed with 50 μL of a PEI-NaCl mixture (8 uL PEI: 42 uL NaCl). These solutions were then incubated at room temperature for ten minutes and 25 μL was carefully dropped into individual wells of HEK293FT cells (250 ng DNA/well). Similarly, for 96-well plate transfections, DNA (500 ng, 50 ng/4) was dissolved and brought up to a volume of 25 μL using 0.15 M sodium chloride (NaCl). DNA-NaCl solutions were then mixed with 25 μL of a PEI-NaCl (4 uL PEI: 21 uL NaCl) mixture. These solutions were then incubated at room temperature for ten minutes and 10 μL was carefully dropped into individual wells of HEK293FT cells (100 ng DNA/well). Electronic space-adjustable multichannel pipettors (Integra Biosciences) were utilized throughout the process for rapid aspiration and dispensing of molecular and cellular reagents. A Countess II image-based cell counter (Life Technologies) was used for measuring human cell population densities.
Rapamycin analog (Clontech A/C heterodimerizer AP21967, 0.5 mM) was used as a 1000× stock for chemical induction experiments. […]
(§2) Two days post-transfection and after trypsinization (0.05% Trypsin/0.53 mM EDTA, Corning) and resuspension, all HEK293FT cell populations were analyzed using a Becton Dickinson (BD) LSRFortessa SORP flow cytometer with HTS. […]

[1] = tested on: pCAG-FRT-Neo-FRT-GFP reporter; assay: Gibberellin ester (GIB)-induced split-Flp rejoinder, GFP reporter; format: cell-based, human; conditions: GAI/GID1 CIDD pair; with vs without GIB
Description: Full length FlpO and split Flp vectors were tested for induction of recombinase activity on a pCAG-FRT-Neo-FRT-GFP reporter with and without the presence of gibberellin ester (GIB).
FIGS. 43A-43E show results of gene expression of different split-recombinase Flp (SEQ ID NO: 1) or B3 fragments (SEQ ID NO: 19). […] FIGS. 43B-43E show the GFP expression levels of different amino acid residue of split sites (S) of Flp amino acid sequence (top; shown in blue) and amino acid residue of split sites (S) of B3 amino acid sequence (below, shown in orange).
as §1, with “A Countess II image-based cell counter (Life Technologies) was used for measuring human cell population densities.” left out
as §2

| Molecule | GFP expression of split-VCre by split site (S) (VloxP) | GFP expression of split-Flp by split site (S) [1] |
| --- | --- | --- |
| B1 | result in GFP expression in the presence of GIB |  |
| B2 | result in GFP expression in the presence of GIB |  |
| B3 | result in GFP expression in the presence of GIB |  |
| B4 | result in GFP expression in the presence of GIB |  |
| B5 |  | result in GFP expression in the presence of GIB |
| B6 |  | result in GFP expression in the presence of GIB |
| B7 |  | result in GFP expression in the presence of GIB |
| B8 |  | result in GFP expression in the presence of GIB |
